{"source": "patent US12648946B2", "about": "“Combination of antibody-pyrrolobenzodiazepine derivative conjugate and PARP inhibitor” (DAIICHI SANKYO COMPANY, LIMITED, priority 2019, dated 2026)", "molecules": {"B1": {"name": "C7: mouse anti-CLDN6 antibody from hybridoma 218C7; heavy chain variable region SEQ ID NO: 25, light chain SEQ ID NO: 23 (antibody, listed as Mus musculus, V domains shown)", "VH": "EVQLQQSGPELVKPGASVKISCKTSGYTFTEYTMHWVQQSHGKSLEWIGGVNPNSGDTSYNQKFKGKATLTVDKSSSTAYMELRSLTSEDSAVYYCARPGGYDVGYYAMDYWGQGTSVTVSS", "VL": "DIQMTQTASSLSASLGDRVTISCRASQDINNYLNWYQQKPDGTVKLLIYSTSRLHSGVPSRFSGSGSGTHYSLTITHLEQEDIATYFCQQGYPLPWTFGGGTKLEIK", "modifications": "amino acid sequence of variable region of C7 antibody heavy chain; amino acid sequence of variable region of C7 antibody light chain"}}, "key": {"[1]": {"target": "T1, human claudin-6 (Homo sapiens, UniProt P56747)", "T1 construct": "expressed in transfected cells; host or cells: CHO-K1 cells", "T1 sequence (P56747 1-220)": "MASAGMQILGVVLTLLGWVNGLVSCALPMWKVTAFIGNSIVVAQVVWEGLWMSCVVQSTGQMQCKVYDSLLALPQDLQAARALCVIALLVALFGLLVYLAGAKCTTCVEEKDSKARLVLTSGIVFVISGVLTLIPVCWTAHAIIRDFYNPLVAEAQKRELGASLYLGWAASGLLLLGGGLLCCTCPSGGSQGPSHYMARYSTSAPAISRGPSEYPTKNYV", "experiment": "FACS analysis of hybridoma antibodies on claudin-6 forced-expression cells", "assay_type": "binding", "conditions": "human claudin-6-expressing CHO-K1 cells, cDNA transfection", "description": "Since the antigen for the 218B1 antibody and 218C7 antibody was estimated to be claudin-6 from the mass spectrometry, forced expression analysis by cDNA transfection was carried out."}, "[2]": {"test_system": "BxPC-3, human pancreatic cancer cell line of human CLDN6-negative cells", "experiment": "Internalization activity of antibodies (Mab-ZAP, CellTiter-Glo)", "assay_type": "cell-based", "conditions": "antibody 1 nM with Mab-ZAP 0.5 nM, 5 days", "description": "(§1) Internalization activity of the mouse anti-CLDN6 antibodies B1 and C7 was evaluated by using the anti-mouse IgG reagent, to which a toxin that inhibits protein synthesis (saporin) had been conjugated, Mab-ZAP (Advanced Targeting Systems). In this evaluation, Mab-ZAP is incorporated into cells in a manner depending on the internalization activity of a mouse anti-CLDN6 antibody, and saporin, which inhibits protein synthesis, is released in the cells to suppress cell growth.\n(§2) JEG-3 (ATCC HTB-36), a human choriocarcinoma cell line of human CLDN6-positive cells, NIH: OVCAR-3 (ATCC HTB-161), a human ovarian cancer cell line of human CLDN6-positive cells, or BxPC-3 (ATCC CRL-1687), a human pancreatic cancer cell line of human CLDN6-negative cells, was seeded in a 96-well cell culture microplate at 2×10^3 cells/well, and cultured under conditions of 37° C. and 5% CO2 overnight. On the next day, a mixed solution obtained by mixing each mouse anti-CLDN6 antibody or mouse IgG1 antibody (R&D Systems, Inc.) to a final concentration of 1 nM, with Mab-ZAP (final concentration: 0.5 nM) or AffiniPure Goat Anti-Mouse IgG, Fcγ Fragment Specific (Jackson ImmunoResearch Laboratories Inc.) (final concentration: 0.5 nM), without conjugated toxin, was added, and the cells were cultured under conditions of 37° C. and 5% CO2 for 5 days. The number of surviving cells was determined through quantification of ATP activity by using CellTiter-Glo Luminescent Cell Viability Assay (Promega Corporation)."}, "[3]": {"test_system": "JEG-3, human choriocarcinoma cell line of human CLDN6-positive cells", "experiment": "Internalization activity of antibodies (Mab-ZAP, CellTiter-Glo)", "assay_type": "cell-based", "conditions": "antibody 1 nM with Mab-ZAP 0.5 nM, 5 days", "description": "as §1, §2"}, "[4]": {"test_system": "NIH: OVCAR-3, human ovarian cancer cell line of human CLDN6-positive cells", "experiment": "Internalization activity of antibodies (Mab-ZAP, CellTiter-Glo)", "assay_type": "cell-based", "conditions": "antibody 1 nM with Mab-ZAP 0.5 nM, 5 days", "description": "as §1, §2"}}}
{"molecule": "B1", "values": [{"measurement": "FACS reaction", "setting": "[1]", "value": "strong positive reaction"}, {"measurement": "Cell growth-suppressing effect (internalization activity)", "setting": "[2]", "value": "no cell growth-suppressing effect"}, {"measurement": "Cell growth-suppressing effect (internalization activity)", "setting": "[3]", "value": "cell growth-suppressing effect"}, {"measurement": "Cell growth-suppressing effect (internalization activity)", "setting": "[4]", "value": "cell growth-suppressing effect"}]}
